Test results published in the supplement of paper PMC9732359.
± gives the uncertainty stated by the source.

assay: protein stability index of a GFP-peptide fusion (yeast GPS) (PSI 1-4); higher = more stable; sorted into four equal gates, so the index is relative within each strain; settings: san1∆
How it was run: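 Tiled yeast protein peptides of 17 residues were each joined downstream of GFP, on plasmids that also express Cherry. The pooled library was maintained in yeast, and mid-log cultures in leucine-free medium were sorted into four equal gates on the GFP/Cherry ratio. Plasmids from every gate were amplified by PCR and sequenced on Illumina, with barcodes linking reads to strains. The protein stability index of a peptide is its gate-number-weighted read frequency summed over the gates.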

Row | Sequence | protein stability index
1 | NSQVFGVARIYASFNDT [RPS14B] | 2.5 ± 0.048

same assay, conditions: ubr1∆

Row | Sequence | protein stability index
2 | NDTISEDILQGIFNLLN [NUT1] | 2.6 ± 0.088
3 | NEAGRKLSDIFLSKPSK [SNF2] | 3.04 ± 0.093
4 | NEAPPKTSLADWQKEDG [YMR153W/NUP53] | 2.93 ± 0.15
5 | NEDENIQLIKILNSHFD [YJL041W/NSP1] | 2.85 ± 0.037
6 | NEENDLDVDPAKRIRVS [RPB2] | 3.02 ± 0.047
7 | NEKEQLSFINPKTGKVE [SEC65] | 2.99 ± 0.059
8 | NELQEERLKVPILVTLV [POP6] | 1.7 ± 0.023
9 | NEMLLKRVTKVKRLLFT [MTW1] | 1.42 ± 0.036
10 | NEQEEKSEEVKAEDDTG [RPC37] | 2.85 ± 0.17
11 | NEVCLEKENRFEIVDRE [SMC4] | 3.3 ± 0.082
12 | NEVYSAYVVNDTAPKPN [DLS1] | 3.25 ± 0.066
13 | NFLETIASTEKPENKTD [SIR4] | 3.13 ± 0.092
14 | NFLLPDIFGDSELFDEW [ISW2] | 2.72 ± 0.059
15 | NFNASLQLTTNTEQGDS [SNM1] | 1.85 ± 0.071
16 | NGDKKVDIYSLPLISTD [YMR129W/POM152] | 3.03 ± 0.051
17 | NGGDKELEMIGGTNEDD [YCS4] | 3.05 ± 0.27
18 | NGGNNTQQPGTNSHYNN [SNF2] | 3.05 ± 0.047
19 | NGKDSEIMYTGVSISVS [SMC3] | 2.29 ± 0.17
20 | NGNWEVGVHIADVTHFV [DIS3] | 2.62 ± 0.048
21 | NGQEQQGPVKNTQLHGP [RGR1] | 3.1 ± 0.044
22 | NGSEKVLIAQERSAGNI [RPB2] | 3.06 ± 0.061
23 | NGTMINEVIDKLKNENT [PCI8] | 3.09 ± 0.037
24 | NGVIIAADNLGSYGSLL [PRE4] | 3.12 ± 0.2
25 | NGVVIATEKKSSSPLAM [PRE8] | 3.07 ± 0.11
26 | NHASMDVYNRELDEHTT [BRR2] | 3.26 ± 0.056
27 | NHGGSLGKYDLTVIEKL [SRP68] | 3.41 ± 0.29

Row | Sequence | protein stability index
28 | NHNGSALLIEVFTALLR [ITC1] | 1.35 ± 0.053
29 | NIALVSKLRNNIRSQLL [SRP54] | 2.61 ± 0.065
30 | NIELHSLYTSREPRVVS [PUP1] | 3.07 ± 0.078
31 | NIKSNDFSIRKTCAKSV [ECM29] | 2.83 ± 0.15
32 | NILALNLVSLLIIVTRK [YML031W/NDC1] | 1.32 ± 0.039
33 | NILTTHLSHPGTNKDMI [ECM29] | 2.05 ± 0.044
34 | NINFASGVKNDILQSLS [CDC53] | 1.66 ± 0.045
35 | NIPRRELKINLPLTEHK [SRB4] | 3.03 ± 0.12
36 | NIVKQNEGIDLDTYRER [SMC2] | 3.41 ± 0.086
37 | NKANIQALIHGLNRHYY [RPN11] | 2.37 ± 0.073
38 | NKDASLALQRGATVFVN [DPB4] | 2.32 ± 0.083
39 | NKDLSELVIRLEKDAAD [YIL149C/MLP2] | 3.15 ± 0.069
40 | NKELPINHTILGKLQDV [RPN8] | 2.67 ± 0.049
41 | NKENDNVPSTKFNAAPE [SNF12] | 3.14 ± 0.056
42 | NKEYTLVHGIFGAKMSR [SIN4] | 3.09 ± 0.11
43 | NKKIGKRPPEIMSTEAH [SIR4] | 3.22 ± 0.088
44 | NKKSEQALDISKKGKPT [SRP72] | 3.04 ± 0.073
45 | NKLDEYHGLYTNYEMSY [LIN1] | 1.6 ± 0.068
46 | NKLMEKDFQVNKEIKPY [SIR4] | 3.28 ± 0.047
47 | NKLRQQAIAKNNPQVVN [SNF5] | 1.65 ± 0.03
48 | NKNGENKKIGKRPPEIM [SIR4] | 3.28 ± 0.091
49 | NKNLPFVWLSSEENIGS [SWI1] | 1.74 ± 0.053
50 | NKRLSRGKKGLKKKVVD [RPS1B] | 3.38 ± 0.14
51 | NKTLTLDLKECYQFAEY [ARP7] | 2.69 ± 0.1
52 | NKTVNEAAKPSLSFGSG [YJL041W/NSP1] | 3.21 ± 0.078
53 | NLATKGMVKLNEYPVAD [REC8] | 1.57 ± 0.058

Row | Sequence | protein stability index
54 | NLEFNYTKPYPNFEASF [SMC2] | 2.74 ± 0.13
55 | NLEKNYLAKLSKQLSLE [IRR1] | 3.14 ± 0.084
56 | NLEQINEDLEDGHYIEE [REC8] | 3.2 ± 0.088
57 | NLIGVITHQGANSESGH [UBP6] | 3.07 ± 0.085
58 | NLLKVSVDICNNSKSRY [ECM29] | 2.02 ± 0.054
59 | NLLLSASRDKTLISWKL [ASC1] | 2.2 ± 0.069
60 | NLLTPQPTNFTTKRLWS [MCD1] | 2.85 ± 0.065
61 | NLNAFVDFSKYNTNFNL [SRP72] | 2.17 ± 0.08
62 | NLQTFTHEQWSNIQRNV [SRP72] | 2.93 ± 0.046
63 | NLRRHSDIVLDKKVTLI [SIN4] | 2.68 ± 0.038
64 | NLSSNVNFTEIGGLIPQ [YCS4] | 2.47 ± 0.059
65 | NLYDDVKCWSKFIEKFQ [MED1] | 3.58 ± 0.29
66 | NMGSLLGLCLVIQIVTG [COB] | 3 ± 0.034
67 | NMKVTILHGSKSQEQRE [PRP28] | 3.35 ± 0.06
68 | NMMNQVGEEETSQKMKK [SRP54] | 3.23 ± 0.079
69 | NMNLNPQMFLNQQAQAR [GAL11] | 2.04 ± 0.03
70 | NNFRESDIIILKGEIED [SIR4] | 2.93 ± 0.13
71 | NNIVSVLTAGVNSVAIK [RPN11] | 1.97 ± 0.058
72 | NNNINENELFNDRKQTT [SSN2] | 2.78 ± 0.14
73 | NNNNAPIIIYGTENTER [YOR098C/NUP1] | 2.74 ± 0.039
74 | NNNNNNNNNNNNDDNGN [MED2] | 3.23 ± 0.034
75 | NNSNSNNNSSNEKEQLS [SEC65] | 2.76 ± 0.035
76 | NNVNEYSYTTIVLSDQT [YJL039C/NUP192] | 2.93 ± 0.044
77 | NPHDTLNRIKKYLLTQR [PRP8] | 2.27 ± 0.15
78 | NPLMYSGGNNTATIINN [PCI8] | 3.11 ± 0.045
79 | NQFKRIDTLLYLMTYPQ [RET1] | 1.55 ± 0.067

Row | Sequence | protein stability index
80 | NQILQTEIENYLLENNQ [YDL116W/NUP84] | 2.13 ± 0.043
81 | NQNFSLTFQPQQQTNAL [GRR1] | 2.94 ± 0.057
82 | NQQAQARQQVAQQLRNQ [GAL11] | 2.34 ± 0.1
83 | NQSTIYEDEELSRAEYD [LIN1] | 3.27 ± 0.058
84 | NRAARDRRAQRVAEKRD [RPL19A] | 3.19 ± 0.06
85 | NRIIKADDHASVQINVA [RPS21A] | 3.11 ± 0.039
86 | NRKIYQFTLYDRELNEV [SMC3] | 2.98 ± 0.095
87 | NRKRIVTLRKSLYTNTS [RPL3] | 1.73 ± 0.076
88 | NRLEIKYHNDLIEKEIQ [SMC1] | 2.42 ± 0.13
89 | NRLEKEQSVKTQNSRHY [LIN1] | 2.49 ± 0.096
90 | NRLSNPQKNLLLKGPAS [YOR098C/NUP1] | 2.94 ± 0.056
91 | NRPDNKNAQYHLLVKQG [RPN7] | 2.78 ± 0.036
92 | NRQICLVQKTVQESGNI [GRR1] | 2.69 ± 0.1
93 | NRSAKNSKNDSANVELF [YCS4] | 3.39 ± 0.072
94 | NRVPDGFQDRSLPHFPK [RPO31] | 3.6 ± 0.2
95 | NRYAFSQPTNSTTTSLH [SMC4] | 2.26 ± 0.044
96 | NSGNSNSNSNQQSTDAD [RPT1] | 2.64 ± 0.052
97 | NSINKTTVPFKESDDPS [POP1] | 2.36 ± 0.065
98 | NSIRAREVENSVSLLNS [SMC1] | 3.08 ± 0.069
99 | NSMEYTGKITKMFQDIR [CDC53] | 3.28 ± 0.078
100 | NSNQQQNPKLFQTIFSK [SIN4] | 2.42 ± 0.082
101 | NSNTNLNSLSPQAILAK [SWI1] | 2.02 ± 0.03
102 | NSQVFGVARIYASFNDT [RPS14B] | 2.67 ± 0.079
